From patent US20210047426A1 (MacroGenics, published 2021)

What was measured:
[1] = target: T1, Human CD123 on the surface of leukemic cell lines (human, UniProt P26951 19-378); assay: cell-based or functional assay
[2] = target: T2, Cynomolgus CD123-His (soluble cynomolgus IL3R-alpha) (cynomolgus monkey); assay: BIACORE surface plasmon resonance, purified cynomolgus monkey CD123 captured and immobilized, 1:1 binding fit
T2 construct: also called cynomolgus monkey CD123; monkey CD123
From the text: (§1) BIACORE™ analyses measure the dissociation off-rate, kd. The binding affinity (KD) between an antibody and its target is a function of the kinetic constants for association (on rate, ka) and dissociation (off-rate, kd) according to the formula: KD=[kd]/[ka]. The BIACORE™ analysis uses surface plasmon resonance to directly measure these kinetic parameters. Recombinant human or cynomolgus monkey CD3 was directly immobilized to a support. Purified human or cynomolgus monkey CD123 was captured and immolbilized to a support. The time course of dissociation was measured and a […] of the data conducted. Binding constants and affinity were obtained using a 1:1 binding fit.

[3] = target: T3, Human CD123-His (soluble human IL3R-alpha) (human, UniProt P26951 19-305, limits assumed); assay: SPR (BIAcore 3000), antigen immobilized on the chip, DART-A injected, 1:1 Langmuir fit, mean of 3 experiments
T3 construct: also called interleukin 3 receptor alpha chain; not shown: His tag
T3 sequence (looked up): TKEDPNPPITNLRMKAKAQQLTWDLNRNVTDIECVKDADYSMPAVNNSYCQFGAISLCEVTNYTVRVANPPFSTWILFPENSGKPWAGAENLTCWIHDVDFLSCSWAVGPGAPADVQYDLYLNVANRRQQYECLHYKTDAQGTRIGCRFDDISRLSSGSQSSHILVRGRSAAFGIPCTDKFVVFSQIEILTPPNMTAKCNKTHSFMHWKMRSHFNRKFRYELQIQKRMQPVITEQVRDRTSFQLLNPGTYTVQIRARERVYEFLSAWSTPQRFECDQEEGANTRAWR
Experimental: (§2) Briefly, the carboxyl groups on the CMS sensor chip were activated with an injection of 0.2M N-ethyl-N-([…]) carbodiimide and 0.05M N-hydroxy-succinimide. Soluble CD3 or CD123 (1 μg/ml) was injected over the activated CMS surface in 10 mM sodium-acetate, pH 5.0, at flow rate 5 μL/min, followed by 1 M ethanolamine for deactivation. Binding experiments were performed in 10 mM HEPES, pH 7.4, 150 mM NaCl, 3 mM EDTA and 0.005% P20 surfactant. Regeneration of the immobilized receptor surfaces was performed by pulse injection of 10 mM glycine, pH 1.5. KD values were determined by a global fit of binding curves to the Langmuir 1:1 binding model (BIAevaluation software v4.1).
(§3) The data in Table 7 are averages of 3 independent experiments each performed in duplicates.

[4] = target: T2, Cynomolgus CD123-His (soluble …); assay: as above
Experimental: as §2, §3

[5] = target: T2, Cynomolgus CD123-His (soluble …); assay: bifunctional ELISA, plate coated with cynomolgus monkey CD123, detection with human CD3-biotin and streptavidin-HRP
Experimental: (§4) A MaxiSorp ELISA plate (Nunc) coated overnight with the soluble human or cynomolgus IL3R-alpha (0.5 μg/mL) in bicarbonate buffer was blocked with 0.5% BSA; 0.1% Tween-20 in PBS (PBST/BSA) for 30 minutes at room temperature. […] HRP activity was detected by conversion of tetramethylbenzidine (BioFX) as substrate for 5 min; the reaction was terminated with […] of 1% […] and the absorbance read at 450 nm.

[6] = target: T3, Human CD123-His (soluble human …); assay: BIACORE surface plasmon resonance, purified human CD123 captured and immobilized, 1:1 binding fit
From the text: as §1

[7] = target: T3, Human CD123-His (soluble human …); assay: bifunctional ELISA, plate coated with human CD123, detection with human CD3-biotin and streptavidin-HRP
Experimental: as §4

[8] = target: T1, Human CD123 on the surface of leukemic …; assay: FACS on Molm-13 cells, detection with a monoclonal antibody to the E-coil/K-coil region

B1: Sequence-Optimized CD123 × CD3 Bi-Specific Diabody Having an Albumin-Binding Domain (DART-A w/ABD) (bispecific antibody)
chain 1: QAVVTQEPSLTVSPGGTVTLTCRSSTGAVTTSNYANWVQQKPGQAPRGLIGGTNKRAPWTPARFSGSLLGGKAALTITGAQAEDEADYYCALWYSNLWVFGGGTKLTVLGGGGSGGGGEVQLVQSGAELKKPGASVKVSCKASGYTFTDYYMKWVRQAPGQGLEWIGDIIPSNGATFYNQKFKGRVTITVDKSTSTAYMELSSLRSEDTAVYYCARSHLLRASWFAYWGQGTLVTVSSGGCGGGEVAALEKEVAALEKEVAALEKEVAALEKGGGSLAEAKVLANRELDKYGVSDYYKNLIDNAKSAEGVKALIDEILAALP
chain 2: DFVMTQSPDSLAVSLGERVTMSCKSSQSLLNSGNQKNYLTWYQQKPGQPPKLLIYWASTRESGVPDRFSGSGSGTDFTLTISSLQAEDVAVYYCQNDYSYPYTFGQGTKLEIKGGGSGGGGEVQLVESGGGLVQPGGSLRLSCAASGFTFSTYAMNWVRQAPGKGLEWVGRIRSKYNNYATYYADSVKDRFTISRDDSKNSLYLQMNSLKTEDTAVYYCVRHGNFGNSYVSWFAYWGQGTLVTVSSGGCGGGKVAALKEKVAALKEKVAALKEKVAALKE
EC50 of redirected killing of Kasumi-3 cells (LDH release, E:T = 10:1) [1]: 0.01 ng/mL | EC50 of redirected killing of Molm13 cells (LDH release, E:T = 10:1) [1]: 0.18 ng/mL | EC50 of redirected killing of RS4-11 cells (LDH release, E:T = 10:1) [1]: 0.5 ng/mL | EC50 of redirected killing of TF-1 cells (LDH release, E:T = 10:1) [1]: 0.46 ng/mL | EC50 of redirected killing of THP-1 cells (LDH release, E:T = 10:1) [1]: 0.24 ng/mL

B2: Sequence-Optimized CD123 × CD3 Bi-Specific Diabody (DART-A) (bispecific antibody)
chain 1: QAVVTQEPSLTVSPGGTVTLTCRSSTGAVTTSNYANWVQQKPGQAPRGLIGGTNKRAPWTPARFSGSLLGGKAALTITGAQAEDEADYYCALWYSNLWVFGGGTKLTVLGGGGSGGGGEVQLVQSGAELKKPGASVKVSCKASGYTFTDYYMKWVRQAPGQGLEWIGDIIPSNGATFYNQKFKGRVTITVDKSTSTAYMELSSLRSEDTAVYYCARSHLLRASWFAYWGQGTLVTVSSGGCGGGEVAALEKEVAALEKEVAALEKEVAALEK
chain 2: B1 chain 2
notes: Two-chain heterodimer, the chains disulfide-bonded to one another; one CD123 site and one CD3 site; 58.9 kDa
Kd [2]: 0.27 nM | Kd [3]: 0.13 nM | koff [3]: 0.00019 s⁻¹ | kon [3]: 1.6e+06 M⁻¹ s⁻¹ | Kd [4]: 0.27 nM | koff [4]: 0.0004 s⁻¹ | kon [4]: 1.5e+06 M⁻¹ s⁻¹ | EC50 (read off the curve) [5]: ~40 ng/mL | Kd [6]: 0.14 nM | EC50 (read off the curve) [7]: ~10 ng/mL

B3: Control Bi-Specific Diabody (Control DART) (bispecific antibody)
chain 1: DVVMTQTPFSLPVSLGDQASISCRSSQSLVHSNGNTYLRWYLQKPGQSPKVLIYKVSNRFSGVPDRFSGSGSGTDFTLKISRVEAEDLGVYFCSQSTHVPWTFGGGTKLEIKGGGSGGGGEVQLVESGGGLVQPGGSLRLSCAASGFTFNTYAMNWVRQAPGKGLEWVARIRSKYNNYATYYADSVKDRFTISRDDSKNSLYLQMNSLKTEDTAVYYCVRHGNFGNSYVSWFAYWGQGTLVTVSSGGCGGGEVAALEKEVAALEKEVAALEKEVAALEK
chain 2: QAVVTQEPSLTVSPGGTVTLTCRSSTGAVTTSNYANWVQQKPGQAPRGLIGGTNKRAPWTPARFSGSLLGGKAALTITGAQAEDEADYYCALWYSNLWVFGGGTKLTVLGGGGSGGGGEVKLDETGGGLVQPGRPMKLSCVASGFTFSDYWMNWVRQSPEKGLEWVAQIRNKPYNYETYYSDSVKGRFTISRDDSKSSVYLQMNNLRVEDMGIYYCTGSYYGMDYWGQGTSVTVSSGGCGGGKVAALKEKVAALKEKVAALKEKVAALKE
notes: Bi-specific for fluorescein (FITC) and CD3; has no CD123 arm; also called FITC × CD3 control diabody
binding result [8]: no binding | binding result [7]: no binding (tested: 1 ug/mL)
